Literature values, collected in patent publication US20250341526A1, “NOVEL DYES” (Quantum-Si Incorporated, priority 2024, published 2025).
Changes are numbered by the printed parent chain. In names and notes the source's numbering stands.

B1: PS561: ClpS amino acid recognition protein, SEQ ID NO: 75 (protein, listed as Roseimaritima sp.)
chain: MAELQTAVVEPTTRPEQDEKQSQSRPKRQPRYNVILWDDPDHSYDYVIMMLKELFGHPRQRGHQMAEEVDTTGRVICLTTTMEHAELKRDQIHAYGSDEGITRCKGSMSASIEPVPE
B2: PS562: ClpS amino acid recognition protein, SEQ ID NO: 76 (protein, listed as Rubripirellula amarantea)
chain: MSDQQSMVAEPEVVVHTQDEKKLEKQNKRKKQPRYNVVLWDDTDHSYDYVVLMMKQLFHHPIETGFQIAKQVDKGGKAICLTTTMEHAELKRDQIHAFGKDDLIARCTGSMSATIEPVPE
B3: PS563: ClpS amino acid recognition protein, SEQ ID NO: 77 (protein, listed as Acidobacteria bacterium)
chain: MSSRSATAYPEVEDDTSDQLQPLYHVILLNDEDHTYDYVIEMLQKIFGFPESKAFSHAVEVDTKGTTILLTCDLEQAERKRDLIHSYGPDWRLPRSLGSMAAVVEPAAG
B4: PS374: ClpS amino acid recognition protein, SEQ ID NO: 7 (protein)
chain: MRWEDPLAAEPVTPGVAPVVEEETDAAVETPWRVILYDDDIHTFEEVILQLMKATGCTPEQGERHAWTVHTRGKDCVYQGDFFDCFRVQGVLREIQLVTEIEG
B5: PS564: ClpS amino acid recognition protein, SEQ ID NO: 78 (protein, listed as Planctomycetes bacterium)
chain: MFEEVVSVAVAEPKTKKQSRTKPKRQPPYHVILWDDTDHTFDYVIKMMGELFRMPREKGYQLAKEVDTSGRAICMTTTLELAELKRDQIHAFGRDDASAHCKGSMSATIEPAEG
B6: PS565: ClpS amino acid recognition protein, SEQ ID NO: 79 (protein, listed as Aquisphaera sp.)
chain: MSEFDHEHSGDTSVADPIVTTKTAPKPQKHAENETETRRQPPYNVIILNDEEHTFDYVIELLCKVFRHSLATAQELTWRIHLTGRAVVLTTHKELAELKRDQVLAYGPDPRMSVSKGPLDCFIEPAPGG
B7: PS566: ClpS amino acid recognition protein, SEQ ID NO: 80 (protein, listed as Planctomycetaceae bacterium)
chain: MSSPSSLDDVQVSTSRAKPANETRTRKQPPYAVIVENDDHHTFLYVIEALMKVCGHAPEKGFVLAQQIHTQGKAMVWSGTLELAELKRDQLRGFGPDNYAPRPVTFPLGVTIEPLP
B8: PS567: ClpS amino acid recognition protein, SEQ ID NO: 81 (protein, listed as Planctomycetaceae bacterium)
chain: MADYEDAGEDALEDDFDHGTVTVAPQKPEPKKQSENKRQANRQPRYNVLLWDSEDHTFEYVEKMLRELFGHIKKQCQIIAEQVDQEGRAVVLTTTLEHAELKRDQIHAYGKDQLEGSKGSMWSTIEAVD
B9: PS568: ClpS amino acid recognition protein, SEQ ID NO: 82 (protein, listed as Dehalococcoidia bacterium)
chain: MTTPSLPTRETEVEERTEVEPERLYHLVLLDDDQHSYQYVIEMLASIFGYGSEKAWTLARIVDTEGRAILETASHAQCERHQSQIHAYGADSRIPTSVGSMSAVIEEAGTPPQT
B10: PS569: ClpS amino acid recognition protein, SEQ ID NO: 83 (protein, listed as Planctomycetes bacterium)
chain: MYSKNQIKIYCSEDDKGQTATPLLEKKPKFAPLYHVILWDDNTHTYEYVIKLLMSLFRMTFEKAYQHTLEVDKKGRTICITTHLEKAELKQEQISNFGPDILMQNSKGPMSATIEPAN
B11: PS570: ClpS amino acid recognition protein, SEQ ID NO: 84 (protein, listed as Leptospira congkakensis)
chain: MTGAGASQPSILEETEVRPRLSDGPWKVVLWDDDFHTYEYVIEMLMDVCQMPWEKAFQHAVEVDTRKKTIVFSGELEHAEFVHERILNYGPDPRMGSSKGSMTATLEQ
B12: PS571: ClpS amino acid recognition protein, SEQ ID NO: 85 (protein, listed as Leptospira meyeri)
chain: B11 chain with G3S, A4S, V17R, R18K, S73F, S97T, Q108K
B13: PS572: ClpS amino acid recognition protein, SEQ ID NO: 86 (protein, listed as Blastopirellula marina)
chain: MSSEELSLQTRPKRQPPFGVILHNDDLNSFDYVIDSIRKVFHYELEKCFQLTLEAHETGRSLLWTGTLEGAELKQELLLSCGPDPIMLDKGGLPLKVTLEELPQ
B14: PS573: ClpS amino acid recognition protein, SEQ ID NO: 87 (protein, listed as Leptospira fluminis)
chain: MSQTPVIEETTVKDPVKTGGPWKVVLWDDDEHTYDYVIEMLMEVCVMTMEQAFHHAVEVDTQKKTVVYSGEFEHAEHIQELILEYGPDPRMAVSKGSMSATLEKS
B15: PS375: ClpS amino acid recognition protein, SEQ ID NO: 8 (protein)
chain: MEAEPETKVLASIPGVGTSEPFRVVLFNDEEHSFDEVIFQIIKAVRCSRAKAEALTMEVHNSGRSIVYTGPIEQCIRVSAVLEEIELRTEIQS
B16: PS574: ClpS amino acid recognition protein, SEQ ID NO: 88 (protein, listed as Gemmata obscuriglobus)
chain: MANATPTPDVVPEEETETRTRRQPPYAVVLHNDDTNTMDFVVTVLRKVFGYTVEKCVELMLEAHTQGKVAVWIGALEVAELKADQIKSFGPDPHVTKNGHPLGVTVEPAA
B17: PS575: ClpS amino acid recognition protein, SEQ ID NO: 89 (protein, listed as Leptospira kmetyi)
chain: MASTQTPDLNEITEESTKSTGGPWRVVLWDDNEHTYEYVIEMLMEICTMTVEKAFLHAVQVDQEKRTVVFSGEFEHAEHVQERILTYGADPRMSNSKGSMSATLEK
B18: PS576: ClpS amino acid recognition protein, SEQ ID NO: 90 (protein)
chain: B17 chain with M44V, T48M, Q63K, V69D, F74L, T86N, K106R
modifications: Leptospira interrogans
B19: PS577: ClpS amino acid recognition protein, SEQ ID NO: 91 (protein, listed as Tuwongella immobilis)
chain: MSASSSQPGTTTKPDLDIQPRLLPPFHVILENDEFHSMEFVIDTLRKVLGVSIERAYQLMMTAHESGQAIIWTGPKEVAELKYEQVIGFHEKRSDGRDLGPLGCRIEPAV
B20: PS578: ClpS amino acid recognition protein, SEQ ID NO: 92 (protein, listed as Planctomycetes bacterium)
chain: MSGTVVESKPRNSTQLAPRWKVIVHDDPVTTFDFVLGVLRRVFAKPPGEARRITREAHDTGSALVDVLALEQAEFRRDQAHSLARAEGFPLTLTLEPAD
B21: Agrobacterium tumifaciens ClpS1 (atClpS1): ClpS amino acid recognition protein, SEQ ID NO: 93 (protein, listed as Agrobacterium tumifaciens)
chain: MIAEPICMQGEGDGEDGGTNRGTSVITRVKPKTKRPNLYRVLLLNDDYTPMEFVIHILERFFQKDREAATRIMLHVHQHGVGECGVFTYEVAETKVSQVMDFARQHQHPLQCVMEKK
B22: Agrobacterium tumifaciens ClpS2 (atClpS2): ClpS amino acid recognition protein, SEQ ID NO: 94 (protein, listed as Agrobacterium tumifaciens)
chain: MSDSPVDLKPKPKVKPKLERPKLYKVMLLNDDYTPREFVTVVLKAVFRMSEDTGRRVMMTAHRFGSAVVVVCERDIAETKAKEATDLGKEAGFPLMFTTEPEE
B23: PS376: ClpS amino acid recognition protein, SEQ ID NO: 9 (protein)
chain: MPTNDLDLLEKQDVKIERPKMYQVVMYNDDFTPFDFVVAVLMQFFNKGMDEATAIMMQVHMQGKGICGVFPKDIAETKATEVMKWAKVEQHPLRLQVEAQA
B24: PS218: ClpS amino acid recognition protein, SEQ ID NO: 98 (protein)
chain: B21 chain with M51F, E52Q, T70W, M73T
B25: atClpS2 C72S: ClpS amino acid recognition protein, SEQ ID NO: 100 (protein)
chain: B22 chain with C72S
B26: atClpS2-V1 + C72S: ClpS amino acid recognition protein, SEQ ID NO: 101 (protein)
chain: B22 chain with R36M, E37S, C72S
B27: atClpS1 C7S: ClpS amino acid recognition protein, SEQ ID NO: 103 (protein)
chain: B21 chain with C7S

System: amino acid at a terminal position of a polypeptide
Conditions: Table 1, ClpS proteins; amino acid at terminal position; inferred from literature and/or demonstrated by the inventors; cited from earlier work

Row | Molecule | Binding Pref.
1 | B1 | I, L, V
2 | B2 | I, L, V
3 | B3 | I, L, V
4 | B4 | F, Y, W, L
5 | B5 | I, L, V
6 | B6 | I, L, V
7 | B7 | I, L, V
8 | B8 | I, L, V
9 | B9 | I, L, V
10 | B10 | I, L, V
11 | B11 | I, L, V
12 | B12 | I, L, V
13 | B13 | I, L, V
14 | B14 | I, L, V
15 | B15 | F, L
16 | B16 | I, L, V
17 | B17 | I, L, V
18 | B18 | I, L, V
19 | B19 | I, L, V
20 | B20 | I, L, V
21 | B21 | F, W, Y, L
22 | B22 | F, W, Y
23 | B23 | F, W, L
24 | B24 | F, W, Y, L
25 | B25 | F, W, Y
26 | B26 | F, W, Y
27 | B27 | F, W, Y, L
